Assay: soluble on expression in E. coli; label from the status in PepcDB or PDB records

| Sequence | soluble on expression in E. coli |
| --- | --- |
| MGSDKIHHHHHHMMSDASLPALTLPPALRRVLPAARWERVTEGESGAGVWRSTRFVVKVQSRTLYPASTLLQERERLRWFAGRLPVPQVVAYEDDGEQEYLAMTRLPGIAMSHPDAALHPERMVNLLARALRELHALPVRDCPFNMSLGVRLKLARERVAAGVVDESDFDEERQGQSAVQVFNQLARTRPAEEDLVVTHGDACLPNVIVQGEYVEGLIDLGRAGIADRHMDLALAWRSTRRNLGATYAGMLLDLYGRELVDEGKLAYYQLLDELF | not soluble |
| MSVHESSNEINDEPMDTDSNIPESSGNDPSMEVDDEPESSDAADSFKRFERLLQKTENFSHCLSSGDAKLATGAPVDTKKRGRPSKKNGIDGDHRHRKTEQEEDEEMVADAIKSDDLVIFDKSPFYIENGEMRDYQVRGLNWLASLQHNKINGILADEMGLGKTLQTISMIGYMKHYKNKASPHLVIVPKSTLQNWANEFKKWCPSINAVVLIGDEAARNQVLRDVILPQKFDVCCTTYEMMLKVKTQLKKLNWRYIIIDEAHRIKNEKSKLSETVRELNSENRLLITGTPLQNNLHELWALLNFLLPDIFTSSDDFDSWFSNDAMSGNTDLVQRLHKVLQPFLLRRIKSDVEKSLLPKKEVKVYVGLSKMQREWYTKVLMKDIDIINGAGKVEKARLMNILMHLRKCVNHPYLFDGAEPGPPFTTDQHLVDNSGKMVVLDKLLMKFKEQGSRVLIFSQFSRMLDLLEDFCWWRHYEYCRLDGSTPHEDRSNAIEAYNAPDSKKFIFMLTTRAGGLGINLATADVVIIYDSDWNPQSDLQAMDRAHRIGQKKQVRVFRLITENTVDERIIEKAEAKLRLDNIVIQQGRMSEAQKTLGKGDMISMIRHGAEQVFAAKDSTISDDDIDTILEKAEVKTAELNEKMGKIDENNLRNMTFEDNAKFTVYQFEGENYKAKQADGMGHFWIEPPKRERKANYQVDLYYKEAMRAGNPTEKQSKAPRPKLPQVFDFQFYPRRLFELLDKEIYHYRKTIGYVAERPKDVPPKEAEKRQAEEQKLINNARPLTDKEQEEKAELLTQSVTDWTKREFQQFVRGNEKYGREDLESIAKEMERPLEEIQSYAKVFWERIEELQDSEKVLSQIEKGEARIQRKYAVKKALDAKIAKYKAPFQQLRISYGTNKGKTYTEEEDRFLVCETHRLGHDKENVFEELRQSVRMAPQFRFDWFLKSRTAMELQRRCNTLITLIEREMGEVVESKPVIVTAADKKKSVAKDLSKSSGTPTAKKVKATPK | not soluble |
| MGSDKIHHHHHHMVLALNYNMHGVNIRSENAAKPHTMPSRYLCEYIRSIEKNGHALDFGCGKLRYSDELISKFDEVTFLDSKRQLEREQIIRGIKTKIIDYVPRYYKNANTVAFEDVDKIIGGYDFILCSNVLSAVPCRDTIDKIVLSIKRLLKSGGETLIVNQYKSSYFKKYETGRKHLYGYIYKNSKSVSYYGLLDELAVQEICSSHGLEILKSWSKAGSSYVTVGSCNAI | not soluble |
| MTITPNKLTLKIGRAEGRPGDTVEIPVNLYGVPQKGIASGDFVVSYDPNVLEIIEIEPGELIVDPNPTKSFDTAVYPDRKMIVFLFAEDSGTGAYAITEDGVFATIVAKVKEGAPEGFSAIEISEFGAFADNDLVEVETDLINGGVLVTNKPVIEGYKVSGYILPDFSFDATVAPLVKAGFKVEIVGTELYAVTDANGYFEITGVPANASGYTLKISRATYLDRVIANVVVTGDTSVSTSQAPIMMWVGDIVKDNSINLLDVAEVIRCFNATKGSANYVEELDINRNGAINMQDIMIVHKHFGATSSDYDAQLEHHHHHHMRGSHHHHHHTDLRADKASSIELKFDRNKGEVGDILIGTVRINNIKNFAGFQVNIVYDPKVLMAVDPETGKEFTSSTFPPGRTVLKNNAYGPIQIADNDPEKGILNFALAYSYIAGYKETGVAEESGIIAKIGFKILQKKSTAVKFQDTLSMPGAISGTQLFDWDGEVITGYEVIQPDVLSLGDEPF | soluble |
| MAGDPMTPTQNVPEDRIQIGQLRSAYGLNGWLWVYSNTEPMSNMFDYLPWFIETKAGWQTVDVKRWKPHGKGLVVSLKNVSDRNAAESLIGSTIWVAKSQLPKTDVDEYYWSDLKGLTVLGLDEEEQEVNLGQIHELFETGANDVMVVRATADSVDAEERMIPWHKDVVQRVDLEAGRIYVNWGVDYLEHHHHHH | soluble |
| VCSCRLVFCRRTELRVGNCLIGGVSFTYCCTRV | soluble |
| MGSDKIHHHHHHMNHYVEGKLLIIGGAEDKKGECKILKRFIQEAGGRESRVVVLTAATEMPEQVGSEYKELFENLGAAEVQVLDIAERVSANRESISQELQKATGIFFTGGDQLRITGILGGTRLGRTLHNLYQRGVIIAGTSAGASVMSDTMIVGGEAGTPKKDTLTMAPGLGLLHSVVVDQHFAQRGRIGRLLTAIAQNPYVLGVGIDEDTSILVYSDGHFTVVGSQTVTVVDASPTMASNVSEISPGQALVLTPVLMHILSDGYRFDLKRRAASLNETPSGG | not soluble |
| MHIPENLYVVGTMNIADRSLALVDLALRRRFAFVGLEPRLGQVWRDWVVKECAVDPGLVADIERRIAELNDQIAADARLGKQFRIGHSYVTPAHRLEAGDTKKWFLQVVETEIGPLLDEYWFDAPDEAQKAIARLTQGLEHHHHHH | not soluble |
| RALIGRLPDGRADLLENFAAGPGLAQRFGERYPEHAGRDLRFIMELYHAGDTHARDYITATLAAAGETIAGFASAIDVDAIIIGGGVGNIGDAIIKPFAHGFAAHAIPPLDTIPIRQAQLGTDAPIVGAAHLGHSAIE | not soluble |
| MSLGLIRAQPKSGYYVSNHAIKQLASKTTPVPEQASTVVSISDMVFSILSSIKDPETVPLGSAFPWPDLFPLARLSRSLAHATRDMGPAAIVESLPPGNHDLRRQIARRYLMQGVEADVDNILITNGAFEALNLCLEAVTQPGDLVAIESPTFHGCLQALERLQLKAVEIPVDPVLGMDLDYLESVLEKCPVRACWSMTSFQNPMGVSMPAERKQVLVELLTRYRIPLIEDDVYGELYFGMQEHRPAKAYDSEGYVMHCSSFSKTLAPGYRIGWALLPKRFERKVERLKVITSLSTSTIAQAAIADFLQHGGYDRHLRRLRTKFELQQHQYLHLIARYFPAETQVTRPHGGYFLWVDLPERVDALVLFQRALEQGVSVAPGPIFSARHQCCNCIRINYSKPVDAEVEQAFKTLGRLMSSIEAEGHHHHHH | soluble |
| MDTSLPSAILNNMVTATLILDDGLAIRYANPAAELLFSQSAKRIVEQSLSQLIQHASLDLALLTQPLQSGQSITDSDVTFVVDGRPLMLEVTVSPITWQRQLMLLVEMRKIDQQRRLTQELNQHAQQQAAKLLVRGLAHEIKNPLGGLRGAAQLLEKMLPDPSLTEYTHIIIEQADRLRALVDRLLGPQKPGK | not soluble |
| MGSDKIHHHHHHMKETDNLLRENSHDRDISEIVATITALDHPSPSLLRFTAFVPGSANNPVWAEANVAIRLYLSEEFDDATRVYTVRSFDAATESIVVDVVQHHHESPMMRWSDTVKINDTLVLTGPRPHFVIPEGEQAALFLDDTAIPALAAILDQWPTDLRGKGWVVTDDPAAFDELPSIDGLELNLLAPGSDPTVQPLAQQAYDLENPETYVVWAAGERDEIKSIRRHFRKQVGLEKDAVAVFGYWKYNTTNTQIDAVRKENYMKMLSEGLQLENFDDLSLEI | not soluble |
| TDAMSEEEIKIIINNSYNGGEINQTELAYMQNIFSFDERHAKDIMVPRTQMVTLNEPFNVDELLDTIKEHQFTRYPITEDGDKDHVKGFINVKEFLTEYASGKPIKIANYIHELPMISETTRISDALVRMQREHVHISLIIDEYGGTAGILTMEDILEEIVGEIRDEFDDDEVNDIVKLDDHTY | not soluble |
| YRFSDFEMGLLQTHAEMAERMVNEIGGEHLEIRVLAEITELLQERNEELSPFLTRVLSMATELIGADTGSIAIVQERDGEKWLVVEDEEGTIVGAKNKSWLKKYIPPFRIGGHELPAEERSLTGYVAWSKQPKIIAHVADEQGGEGFHRSMHELIKSEIAVPIVCDDEVIAVVCLNSLKPAWFTEEHKRILQIIDRLTSRHISDVQRIERLEGEVTRLKTDVAYKDPQISSYR | not soluble |

From the DeepSol protein solubility set
